Laboratory results reported in doi:10.1101/2020.08.04.235895, “Analysis of Structure and function by the LysR-Type Transcriptional Regulator CbbR of Nostoc sp. PCC 7120”.

Columns and labels:
CbbR_7120 [1] = target: T1, CbbR_7120 (Nostoc sp. PCC 7120, UniProt Q8YQ82 1-337); test: competition EMSA; competitor vs FAM-DNA; EMSA: 5X buffer 100 mM HEPES pH 7.6, 5 mM EDTA, 50 mM (NH4)2SO4, 5 mM DTT, 1% Tween 20, 150 mM KCl (2.5 uL per reaction, volume printed as 10 mL); 15 min on ice; 6% TBE-PAGE on ice; conditions: protein: recombinant; tags: N-terminal 6xHis; chain copies: 4; blunt
T1 sequence: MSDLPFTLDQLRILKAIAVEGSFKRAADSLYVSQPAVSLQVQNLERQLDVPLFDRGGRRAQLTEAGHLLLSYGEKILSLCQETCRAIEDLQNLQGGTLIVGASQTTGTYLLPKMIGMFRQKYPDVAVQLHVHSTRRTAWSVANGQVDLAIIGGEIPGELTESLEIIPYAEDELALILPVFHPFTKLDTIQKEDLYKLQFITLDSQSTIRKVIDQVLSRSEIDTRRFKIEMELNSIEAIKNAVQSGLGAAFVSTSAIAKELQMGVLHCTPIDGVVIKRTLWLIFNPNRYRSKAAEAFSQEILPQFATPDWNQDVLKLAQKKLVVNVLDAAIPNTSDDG

CbbR_7120 [2] = target: T1, CbbR_7120; test: competition EMSA; competitor vs FAM-DNA; no significant change in free FAM-DNA; EMSA: 5X buffer 100 mM HEPES pH 7.6, 5 mM EDTA, 50 mM (NH4)2SO4, 5 mM DTT, 1% Tween 20, 150 mM KCl (2.5 uL per reaction, volume printed as 10 mL); 15 min on ice; 6% TBE-PAGE on ice; conditions: protein: recombinant; tags: N-terminal 6xHis; chain copies: 4; blunt
CbbR_7120 [3] = target: T1, CbbR_7120; test: EMSA; EMSA: 5X buffer 100 mM HEPES pH 7.6, 5 mM EDTA, 50 mM (NH4)2SO4, 5 mM DTT, 1% Tween 20, 150 mM KCl (2.5 uL per reaction, volume printed as 10 mL); 15 min on ice; 6% TBE-PAGE on ice; conditions: protein: recombinant; tags: N-terminal 6xHis; chain copies: 4; label: 5'-FAM on forward strand; blunt
CbbR_7120 [4] = target: T1, CbbR_7120; test: competition EMSA; competitor vs FAM-DNA; EMSA: 5X buffer 100 mM HEPES pH 7.6, 5 mM EDTA, 50 mM (NH4)2SO4, 5 mM DTT, 1% Tween 20, 150 mM KCl (2.5 uL per reaction, volume printed as 10 mL); 15 min on ice; 6% TBE-PAGE on ice; conditions: protein: recombinant; tags: N-terminal 6xHis; chain copies: 4; blunt; remark: listed apart in the source
CbbR_7120 [5] = target: T1, CbbR_7120; test: as above; conditions: protein: recombinant; tags: N-terminal 6xHis; chain copies: 4; blunt; remark: listed apart in the source

B1: BOX 1 (dsDNA)
DNA 1: TAATAACAAATTTAAATAT
DNA 2: ATATTTAAATTTGTTATTA
CbbR_7120 [1]
  binding signal: ~400 competitor:FAM-DNA ratio for complete competition

B2: BOX 2 (dsDNA)
DNA 1: AGTTAAGAACTTTCAAAGA
DNA 2: TCTTTGAAAGTTCTTAACT
CbbR_7120 [2]
  binding result: no binding

B3: FAM-DNA (rbcLXS promoter probe) (dsDNA)
DNA 1: TAATAACAAATTTAAATATGTAAGTTAAGAACTTTCAAAGAATAACTTATGCCATTTCTTGATAT
DNA 2: ATATCAAGAAATGGCATAAGTTATTCTTTGAAAGTTCTTAACTTACATATTTAAATTTGTTATTA
CbbR_7120 [3]
  binding result: binds

B4: BOX1OP1 (dsDNA)
DNA 1: TGTAATAACAAATTTAAATATGTCATATAACAAATTTAAATATGT
DNA 2: ACATATTTAAATTTGTTATATGACATATTTAAATTTGTTATTACA
CbbR_7120 [4]
  binding signal: ~10 competitor:FAM-DNA ratio for complete competition

B5: BOX 3 (dsDNA)
DNA 1: TTATGCCATTTCTTGATAT
DNA 2: ATATCAAGAAATGGCATAA
CbbR_7120 [5]
  binding signal: ~1000 competitor:FAM-DNA ratio for complete competition
